Laboratory results reported in patent publication US20200338203A1 (Bicycle, published 2020).
Numbered stars: 1 amine (or outer) side, 2 acyl side, 3 side chain; on linkers, the order of the positions; unused ones are H or OH. Bridge positions count the residues as written; N and C are the ends. Square brackets hold non-standard residues; d marks the D form. Ends that are not written are not given here. 1Nal = N[C@@H](Cc1cccc2ccccc12)C(=O)O; TBMB = c1c(C[*:1])cc(C[*:3])cc1C[*:2]; hArg = N=C(N)NCCCC[C@H](N)C(=O)O; Tle = CC(C)(C)[C@H](N)C(=O)O; Aib = CC(C)(N)C(=O)O; βAla = NCCC(=O)O; Sar = CNCC(=O)O

These binders were tested against T1, Human EphA2 (Ecto) (Human, UniProt P29317 24-537) (assay: FP competition; competitor Compound 18).
T1 construct: extracellular domain
T1 sequence (P29317 24-537): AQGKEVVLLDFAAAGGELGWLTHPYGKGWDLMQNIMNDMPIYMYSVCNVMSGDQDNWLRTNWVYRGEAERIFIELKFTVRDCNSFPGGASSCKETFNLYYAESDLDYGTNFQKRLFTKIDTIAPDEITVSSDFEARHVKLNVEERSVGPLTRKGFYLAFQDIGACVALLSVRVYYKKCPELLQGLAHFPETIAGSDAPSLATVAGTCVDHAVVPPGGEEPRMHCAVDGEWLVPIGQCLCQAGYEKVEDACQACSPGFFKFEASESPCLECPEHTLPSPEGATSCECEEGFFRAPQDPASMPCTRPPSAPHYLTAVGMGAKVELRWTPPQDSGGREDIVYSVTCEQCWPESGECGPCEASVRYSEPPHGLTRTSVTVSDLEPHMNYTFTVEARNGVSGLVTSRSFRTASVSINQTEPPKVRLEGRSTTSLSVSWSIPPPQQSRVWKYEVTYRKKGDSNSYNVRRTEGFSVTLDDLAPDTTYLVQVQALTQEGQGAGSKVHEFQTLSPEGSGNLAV

Ki [nM]	Binder
2.83	[βAla][Sar][Sar][Sar][Sar][Sar][Sar][Sar][Sar][Sar][Sar]H[dD]VPC[Aib][1Nal]G[Aib]F[1Nal]CP[Tle]N[hArg][Aib][dD]C (linker 16-23-30 via TBMB) [Compound 238]
0.9	Ac-[Sar][Sar]A[dH]DVPCP[1Nal]G[Aib]F[1Nal]CP[Tle]NR[Aib]GC (linker 8-15-22 via TBMB) [Compound 232]
1.02	Ac-[Sar][Sar]A[dD]VTCP[1Nal]G[Aib]F[1Nal]CP[Tle]NR[Aib]GC (linker 7-14-21 via TBMB) [Compound 183]
2.58	[βAla][Sar][Sar][Sar][Sar][Sar][Sar][Sar][Sar][Sar][Sar]H[dD]VPC[Aib][1Nal]G[Aib]F[1Nal]CP[Tle]N[hArg]PGC (linker 16-23-30 via TBMB) [Compound 235]
3.94	[βAla][Sar][Sar][Sar][Sar][Sar][Sar][Sar][Sar][Sar][Sar]H[dD]VPC[Aib][1Nal]G[Aib]F[1Nal]CP[Tle]NRPGC (linker 16-23-30 via TBMB) [Compound 234]
2.4	{Ac-βAla}-[Sar][Sar][Sar][Sar][Sar][Sar][Sar][Sar][Sar][Sar]H[dD]VPC[Aib][1Nal]G[Aib]F[1Nal]CP[Tle]N[hArg]P[dD]C (linker 15-22-29 via TBMB) [Compound 237]
1.93	Ac-[Sar][Sar]A[dH]DVPCP[1Nal]G[Aib]F[1Nal]CP[Tle]N[hArg]PGC (linker 8-15-22 via TBMB) [Compound 231]
1.19	Ac-[Sar][Sar]A[dD]VTCP[1Nal]G[Aib]F[1Nal]CP[Tle]N[hArg]P[dD]C (linker 7-14-21 via TBMB) [Compound 184]
1.34	[dD]VTCP[1Nal]G[Aib]F[1Nal]CP[Tle]NR[Aib]GC (linker 4-11-18 via TBMB) [Compound 186]
1.16	Ac-[Sar][Sar]A[dD]VTCP[1Nal]G[Aib]F[1Nal]CP[Tle]N[hArg]PGC (linker 7-14-21 via TBMB) [Compound 182]

Biological target: T1, Human EphA2 (Ecto)
Assay: FP competition; competitor Compound 18
Remark: another data set of the same source
Experimental: (§1) Peptides without a fluorescent tag were tested in competition with a peptide with a fluorescent tag and a known Kd (Table 2). Peptides were diluted to an appropriate concentration in assay buffer as described in the direct binding assay with a maximum of 5% DMSO, then serially diluted 1 in 2. Five μL of diluted peptide was added to the plate followed by 10 μL of human or mouse EphA2 (Table 1) at a fixed concentration which was dependent on the fluorescent peptide used (Table 2), then 10 μL fluorescent peptide added. Measurements were conducted as for the direct binding assay, however the gain was determined prior to the first measurement.

Binder	Ki [nM]
[Sar][Sar]ACP[1Nal]GPFWCP[Tle]NRP[dA]C (linker 4-11-18 via TBMB) [Compound 132]	7.7
ACPWGPFWCPVNRPGCA (linker 2-9-16 via TBMB) [Compound 69]	107
[Sar][Sar]ACPWGPF[1Nal]CPV[dA]RPGC (linker 4-11-18 via TBMB) [Compound 117]	53
[Sar][Sar]ACP[1Nal]GPF[1Nal]CPVNRPGC (linker 4-11-18 via TBMB) [Compound 120]	1.4
[Sar][Sar]ACPWGPAWCPVNRPGC (linker 4-11-18 via TBMB) [Compound 83]	199
[Sar][Sar]ACPWGPFWCPVNRPAC (linker 4-11-18 via TBMB) [Compound 111]	108
ACPWGPFWCPVARPGC (printed: Sar2-ACPWGPFWCPVARPGC; TBMB on the 3 Cys) [Compound 101]	293
[Sar][Sar]ACPWGPFWCPVNRAGC (linker 4-11-18 via TBMB) [Compound 104]	124
[Sar][Sar]ACP[1Nal]GPFWCPV[dA]RPGC (linker 4-11-18 via TBMB) [Compound 115]	12.5
[Sar][Sar]ACPWGPF[1Nal]CPVNRPGC (linker 4-11-18 via TBMB) [Compound 96]	31.3
[Sar][Sar]ACPWG[Aib]F[1Nal]CPVNRPGC (linker 4-11-18 via TBMB) [Compound 123]	63
[Sar][Sar]ACPWGPFWCPVNR[Aib]GC (linker 4-11-18 via TBMB) [Compound 110]	75
[Sar][Sar]AC[Aib][1Nal]GPFWCPVNRP[dA]C (linker 4-11-18 via TBMB) [Compound 125]	6.4
[Sar][Sar]ACP[1Nal]G[Aib]FWCP[Tle]NRPGC (linker 4-11-18 via TBMB) [Compound 126]	15
ADVHCPWGPFWCPVNRPGCA (linker 5-12-19 via TBMB) [Compound 57]	0.48
ADVTCPWGPFWCPVNRPGCA (linker 5-12-19 via TBMB) [Compound 58]	1.35
[Sar][Sar]ACP[1Nal]G[Aib]FWCPVNRP[dA]C (linker 4-11-18 via TBMB) [Compound 128]	15
[Sar][Sar]ACP[1Nal]GPFWCPVNRP[dA]C (linker 4-11-18 via TBMB) [Compound 116]	2.95
[Sar][Sar]ACP[1Nal]GPFWCPVN[hArg]PGC (linker 4-11-18 via TBMB) [Compound 122]	9.55
[Sar][Sar]AC[Aib][1Nal]GPFWCPVNRPGC (linker 4-11-18 via TBMB) [Compound 113]	10
[Sar][Sar]ACP[1Nal]GPFWCP[Tle][dA]RPGC (linker 4-11-18 via TBMB) [Compound 129]	23
[Sar][Sar]ACP[1Nal]GPFWCP[Tle]NR[Aib]GC (linker 4-11-18 via TBMB) [Compound 131]	11
[Sar][Sar]ACP[1Nal]GPFWCPV[dA][hArg]PGC (linker 4-11-18 via TBMB) [Compound 133]	14
AEGLPCPWGPFWCPVNRPGCA (linker 6-13-20 via TBMB) [Compound 55]	11.3
[Sar][Sar]ACP[1Nal]G[Aib]FWCPV[dA]RPGC (linker 4-11-18 via TBMB) [Compound 127]	40
[Sar][Sar]ACP[1Nal]GPFWCP[Tle]NRPGC (linker 4-11-18 via TBMB) [Compound 121]	3.65

Other lines, results leading:

Ki [nM]	Binder
23	[Sar][Sar]ACP[1Nal]G[Aib]FWCP[Tle]N[hArg]PGC (linker 4-11-18 via TBMB) [Compound 136]
43	[Sar][Sar]AC[Aib][1Nal]G[Aib]FWCPVNR[Aib]GC (linker 4-11-18 via TBMB) [Compound 135]
1.2	[Sar][Sar]ACP[1Nal]GPFWCPVN[hArg]P[dA]C (linker 4-11-18 via TBMB) [Compound 134]

Each binder was assayed against T1, Human EphA2 (Ecto) (assay: FP competition; competitor Compound 66).
Experimental: as §1

Binder	Ki [nM]
[Sar][Sar]ACP[1Nal]GPFWCP[Tle]NRP[dA]C (linker 4-11-18 via TBMB) [Compound 132]	8.7
ACPWGPFWCPVNRPGCA (linker 2-9-16 via TBMB) [Compound 69]	70.1
ACPWGPAWCPVRDTNCA (linker 2-9-16 via TBMB) [Compound 42]	316
[Sar][Sar]ACPWGPF[1Nal]CPV[dA]RPGC (linker 4-11-18 via TBMB) [Compound 117]	75
[Sar][Sar]ACP[1Nal]GPF[1Nal]CPVNRPGC (linker 4-11-18 via TBMB) [Compound 120]	0.98
[Sar][Sar]ACPWGPAWCPVNRPGC (linker 4-11-18 via TBMB) [Compound 83]	288
[Sar][Sar]ACPWGPFWCPVNRPAC (linker 4-11-18 via TBMB) [Compound 111]	238
ACPWGPFWCPVARPGC (printed: Sar2-ACPWGPFWCPVARPGC; TBMB on the 3 Cys) [Compound 101]	265
[Sar][Sar]ACPWGPFWCPVNRAGC (linker 4-11-18 via TBMB) [Compound 104]	194
[Sar][Sar]ACP[1Nal]GPFWCPV[dA]RPGC (linker 4-11-18 via TBMB) [Compound 115]	1.64
ARDDPCPWGPFWCPVNRPGCA (linker 6-13-20 via TBMB) [Compound 62]	28
[Sar][Sar]ACPWGPF[1Nal]CPVNRPGC (linker 4-11-18 via TBMB) [Compound 96]	68.1
[Sar][Sar]ACPWG[Aib]F[1Nal]CPVNRPGC (linker 4-11-18 via TBMB) [Compound 123]	46
[Sar][Sar]ACPWGPFWCPVNR[Aib]GC (linker 4-11-18 via TBMB) [Compound 110]	140
[Sar][Sar]AC[Aib][1Nal]GPFWCPVNRP[dA]C (linker 4-11-18 via TBMB) [Compound 125]	0.61
[Sar][Sar]ACP[1Nal]G[Aib]FWCP[Tle]NRPGC (linker 4-11-18 via TBMB) [Compound 126]	19
ADVHCPWGPFWCPVNRPGCA (linker 5-12-19 via TBMB) [Compound 57]	1.2
ADVTCPWGPFWCPVNRPGCA (linker 5-12-19 via TBMB) [Compound 58]	2.65
[Sar][Sar]ACP[1Nal]G[Aib]FWCPVNRP[dA]C (linker 4-11-18 via TBMB) [Compound 128]	16
[Sar][Sar]ACP[1Nal]GPFWCPVNRP[dA]C (linker 4-11-18 via TBMB) [Compound 116]	3.2
[Sar][Sar]ACP[1Nal]GPFWCPVN[hArg]PGC (linker 4-11-18 via TBMB) [Compound 122]	8
[Sar][Sar]AC[Aib][1Nal]GPFWCPVNRPGC (linker 4-11-18 via TBMB) [Compound 113]	6.6
[Sar][Sar]ACP[1Nal]GPFWCP[Tle][dA]RPGC (linker 4-11-18 via TBMB) [Compound 129]	15
[Sar][Sar]ACP[1Nal]GPFWCP[Tle]NR[Aib]GC (linker 4-11-18 via TBMB) [Compound 131]	6.8
[Sar][Sar]ACP[1Nal]GPFWCPV[dA][hArg]PGC (linker 4-11-18 via TBMB) [Compound 133]	3.7
AEGLPCPWGPFWCPVNRPGCA (linker 6-13-20 via TBMB) [Compound 55]	6.15
ACRVSPEYCPFGPVWCAGAAA (linker 2-9-16 via TBMB) [Compound 34]	77.4
[Sar][Sar]ACP[1Nal]G[Aib]FWCPV[dA]RPGC (linker 4-11-18 via TBMB) [Compound 127]	33
[Sar][Sar]ACP[1Nal]GPFWCP[Tle]NRPGC (linker 4-11-18 via TBMB) [Compound 121]	2

Second part, the binder after the results:

Ki [nM]	Binder
15	[Sar][Sar]ACP[1Nal]G[Aib]FWCP[Tle]N[hArg]PGC (linker 4-11-18 via TBMB) [Compound 136]
30	[Sar][Sar]AC[Aib][1Nal]G[Aib]FWCPVNR[Aib]GC (linker 4-11-18 via TBMB) [Compound 135]
6.15	[Sar][Sar]ACP[1Nal]GPFWCPVN[hArg]P[dA]C (linker 4-11-18 via TBMB) [Compound 134]
